Read-outs that look alike come from different tables or passages of the source.
What was measured:
[1] = test system: HMGB1 release; test: HMGB1 release in vitro by inflammatory mediators (data not shown); format: cell-based
[2] = test system: murine macrophages; test: HMGB1 release in murine macrophage cultures (Western blots); format: cell-based; details: 1-10 μg/ml, 16 h
Procedure: (§1) FIG. 4A-4C. […] A, Amino acid sequence of human and murine SAAs (SEQ ID NOS:19-23, top to bottom). B, Western blots of human SAA and SAA1. Note that the anti-HMGB1 IgGs paradoxically cross-reacted with huSAA, but not huSAA1. […] Murine macrophages and human monocytes were stimulated with huSAA or huSAA1 for 16 h, and extracellular HMGB 1 levels were determined by Western blots.
(§2) Overall, there is a >95-98% amino acid sequence homology between members of the human or murine SAA families, and a >75% identity across human and murine families (FIG. 4A), making it seemingly difficult to distinguish between different SAA members by immunoassays. Indeed, the polyclonal antibodies raised against human SAA cross-reacted with both human SAA and SAA1 on Western blots (FIG. 4B, bottom panel). Intriguingly, our rabbit anti-HMGB1 IgGs “specifically” recognized human SAA, but not SAA1, on Western blots (FIG. 4B), implicating a possibility of selectively immunodetecting human SAA with appropriate antibodies.

[3] = test system: human monocytes; test: HMGB1 release in human monocyte cultures (Western blots); format: cell-based; details: 1-10 μg/ml, 16 h
Procedure: as §1, §2

[4] = test system: Balb/C mice; format: in vivo; details: LPS 5 mg/kg i.p. in combination with SAA 0.8 mg/kg

B1: KC: inflammatory mediator, sepsis surrogate marker (protein, UniProt P12850 25-96, looked up)
Growth-regulated alpha protein: APIANELRCQCLQTMAGIHLKNIQSLKVLPSGPHCTQTEVIATLKNGREACLDPEAPLVQKIVQKMLKGVPK
induction of HMGB1 release in vitro [1]: unable to induce HMGB1 release

B2: human SAA: human serum amyloid A, recombinant protein (Cat. No. 300-13, PeproTech) (protein)
chain: RSFFSFLGEAFDGARDMWRAYSDMREANYIGSDKYFHARGNYDAAKRGPGGAWAAEVITDARENIQRFFGHGAEDSLADQAANEWGRSGKDPNHFRPAGLPEKY
induction of HMGB1 release [2]: effectively induced HMGB1 release | induction of HMGB1 release ([2]; listed as HuSAA): induced HMGB1 release | induction of HMGB1 release [3]: effectively induced HMGB1 release | induction of HMGB1 release ([3]; listed as HuSAA): induced HMGB1 release | effect on LPS-induced animal lethality ([4]; listed as Recombinant SAA protein): dramatically exacerbated | effect on LPS-induced animal lethality ([4]; listed as SAA): exacerbated LPS-induced animal lethality

B3: human SAA1: human SAA1 (Cat. No. 300-53, PeproTech) (protein)
chain: RSFFSFLGEAFDGARDMWRAYSDMREANYIGSDKYFHARGNYDAAKRGPGGAWAAEVITDARENIQRFFGHGAEDSLADQAANEWGRSGKDPNHFRPAGLPEKY
induction of HMGB1 release [2]: barely triggered HMGB1 release | induction of HMGB1 release [3]: barely triggered HMGB1 release

Source: US10183971B2, “SAA-domain-specific antibodies and peptide antagonists and use thereof to treat inflammatory diseases” (The Feinstein Institute For Medical Research, priority 2013, dated 2019)
